Assay results: patent publication US20170253633A1

Target: HLA-A*02:01 (human)
Test: UV-ligand exchange + anti-b2m ELISA; ++++ = peptide exchange yield >75%

## KLLETKWTL (modifications not checked) […]
  peptide exchange yield: > 75%
